Experimental data from publication PMC5741831, “Structural determinants for protein unfolding and translocation by the Hsp104 protein disaggregase” (Bioscience Reports, 2017).

Molecular target: the molecule itself
Experiment: crystal structure; orthorhombic crystal form, 2.6 Å, nucleotide-free, three copies in the asymmetric unit; contacts between NCS-related neighbouring molecules in the crystal, not the hexameric ring

B1: Hsp104_(1-360) (domain or fragment, S. cerevisiae, UniProt P31539 1-360, looked up)
chain: MNDQTQFTERALTILTLAQKLASDHQHPQLQPIHILAAFIETPEDGSVPYLQNLIEKGRYDYDLFKKVVNRNLVRIPQQQPAPAEITPSYALGKVLQDAAKIQKQQKDSFIAQDHILFALFNDSSIQQIFKEAQVDIEAIKQQALELRGNTRIDSRGADTNTPLEYLSKYAIDMTEQARQGKLDPVIGREEEIRSTIRVLARRIKSNPCLIGEPGIGKTAIIEGVAQRIIDDDVPTILQGAKLFSLDLAALTAGAKYKGDFEERFKGVLKEIEESKTLIVLFIDEIHMLMGNGKDDAANILKPALSRGQLKVIGATTNNEYRSIVEKDGAFERRFQKIEVAEPSVRQTVAILRGLQPKYE
notes: Hsp104, S. cerevisiae, residues 1-360: N domain (4-164), AAA-1 large domain (165-341) and first helix of the AAA-1 small domain (345-356); three independent copies in the crystallographic asymmetric unit; nucleotide-free; also called N-terminal fragment of S. cerevisiae Hsp104; mol 1; source: E. coli BL21-CodonPlus (DE3)-RIL, purified (Ni-NTA, anion exchange, Mono-S); not shown: His6, N-terminal, …
binding result: binds
